Data on one sequence can be found in PMC9040798.

Changes are numbered by the printed parent chain.

Holding throughout (experiment): EMSA
Details in all cases: DIG gel shift kit (2nd generation, Roche), as in ref 14; buffer, salt, pH and temperature not stated

The subject of series [1] is T1, GdhR WT (Neisseria gonorrhoeae), ORF:8165ddaf.
T1 sequence: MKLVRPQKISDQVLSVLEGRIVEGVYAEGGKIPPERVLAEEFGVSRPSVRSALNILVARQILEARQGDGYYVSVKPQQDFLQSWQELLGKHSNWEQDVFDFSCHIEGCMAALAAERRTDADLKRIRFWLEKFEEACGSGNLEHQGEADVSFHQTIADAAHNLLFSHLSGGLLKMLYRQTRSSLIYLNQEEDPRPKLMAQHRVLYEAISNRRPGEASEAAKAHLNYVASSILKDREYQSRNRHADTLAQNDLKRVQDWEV

In series [2] the test system is T2, GdhR P6S P6S (Neisseria gonorrhoeae MS11), ORF:8165ddaf.
T2 sequence: T1 sequence with P6S

Series [3] relates to GdhR WT;GdhR P6S P6S (Neisseria gonorrhoeae;Neisseria gonorrhoeae MS11), ORF:8165ddaf+ORF:8165ddaf.

For “GTGGACGGGGACGGCGCGGTATTCGTGCCGCCGGAAGAATGCTGAAAATGCCGTCTGAAGCCTTTCGGGCGGCTTTTTCTACACGCCCCTTTCCCACACTCCCTCCGCCGCATCATCACCATCCTTAACCCGCATTAATAGCCATTATCGATAAAATGCTTGACCGATTACATAAGATTACGTAAAGTGTGCAAACGCATAATAATTGGTCTTACCAATTTATCTTTTAACCAAAATATCGGGTGTGCGGGATTTGAACGTCTTTCCAAACCTCGACGCGCCTTATGATGC (double strand) [lctP promoter -313 to -23]”, the binding result in series [1] is given as “binds”; in series [2] it was “binds more weakly”; in series [3], “binds”.
